Measurements published in US20260001953A1 (TWIST BIOSCIENCE, published 2026).

T1: mouse CD117 (mouse, UniProt P05532)
T1 construct: antigen of the Carterra SPR kinetics; also called murine CD117
T1 sequence (receptor, looked up): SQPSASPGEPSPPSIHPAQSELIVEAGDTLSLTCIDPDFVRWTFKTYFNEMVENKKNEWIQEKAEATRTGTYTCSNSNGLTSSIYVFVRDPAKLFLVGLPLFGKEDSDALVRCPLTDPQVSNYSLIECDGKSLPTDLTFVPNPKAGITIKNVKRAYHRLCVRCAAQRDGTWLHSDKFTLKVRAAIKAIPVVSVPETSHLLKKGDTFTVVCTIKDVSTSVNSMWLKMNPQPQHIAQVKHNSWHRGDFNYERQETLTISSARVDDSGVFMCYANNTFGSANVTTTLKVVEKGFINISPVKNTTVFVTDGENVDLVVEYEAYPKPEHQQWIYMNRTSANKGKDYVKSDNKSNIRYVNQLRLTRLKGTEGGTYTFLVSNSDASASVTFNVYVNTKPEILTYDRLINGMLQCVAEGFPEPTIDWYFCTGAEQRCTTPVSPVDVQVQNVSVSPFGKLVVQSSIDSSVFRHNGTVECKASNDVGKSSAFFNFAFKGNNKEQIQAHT


Assays:
[1] = biological target: T2, Cluster of differentiation 117 (CD117), antigen of epitope binning and ELISA (UniProt P10721 26-520, limits assumed); experiment: Carterra SPR, human CD117
T2 construct: also called tyrosine-protein kinase KIT; mast/stem cell growth factor receptor (SCFR)
Method: (§1) To further evaluate the antibodies discovered during the screens, 21 clones were selected for detailed characterization and were analyzed for target binding kinetics by a Carterra SPR instrument. The binding kinetics of the anti-CD117 antibodies for human CD117, cynomolgus monkey CD117, and murine CD117 are shown in FIG. 29A-29B.

[2] = biological target: T3, CD117 transiently expressed on Expi293 cells (UniProt P10721 26-976, limits assumed); experiment: FACS, MFI expressing / parental cells
T3 construct: whole, on cells; Two cassettes are described (P2A mVenus and direct mVenus fusion); also called CD117 transient cells; the transient cell line
Method: (§2) The transient expression of CD117 was validated with a control antibody, Expi293 (FIGS. 17A-17B). Expi293, […], was transiently transfected with CD117 48-hours post-transfection. The secondary antibody used was APC Goat anti-human IgG (diluted 1:400). 100,000 cells per well were blocked with 1×PBS+0.5% BSA for 1 hour, stained with 100 μL of the primary antibody for 1 hour, and stained with the secondary antibody for one hour, all with 3× washes in between each staining.

[3] = biological target: T3, CD117 transiently expressed on Expi293 …; experiment: FACS cell binding, Expi293 transiently expressing CD117
Method: as §2

mouse CD117 = biological target: T1, mouse CD117; experiment: Carterra SPR, mouse CD117
Method: as §1

cyno CD117 = biological target: T4, cyno CD117 (Macaca fascicularis, UniProt A0A7N9CP24); experiment: Carterra SPR, cyno CD117
T4 construct: antigen of the Carterra SPR kinetics; also called cynomolgus monkey CD117
Method: as §1

T2 sequence (P10721 26-520 limits assumed): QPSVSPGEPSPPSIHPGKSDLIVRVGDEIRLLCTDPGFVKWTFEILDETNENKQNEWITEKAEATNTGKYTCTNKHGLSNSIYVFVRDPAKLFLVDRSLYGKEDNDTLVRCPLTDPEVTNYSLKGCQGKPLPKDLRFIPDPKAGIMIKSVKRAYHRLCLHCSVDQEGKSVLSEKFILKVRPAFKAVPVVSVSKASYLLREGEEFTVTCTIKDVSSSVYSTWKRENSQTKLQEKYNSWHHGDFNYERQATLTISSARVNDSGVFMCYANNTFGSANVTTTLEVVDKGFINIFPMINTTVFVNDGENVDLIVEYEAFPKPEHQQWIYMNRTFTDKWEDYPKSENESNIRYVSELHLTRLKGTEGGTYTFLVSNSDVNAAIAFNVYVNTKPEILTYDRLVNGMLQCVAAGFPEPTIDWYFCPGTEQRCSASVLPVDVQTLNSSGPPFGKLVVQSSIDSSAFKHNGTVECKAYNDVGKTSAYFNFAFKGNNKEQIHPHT
T3 sequence (P10721 26-976 limits assumed): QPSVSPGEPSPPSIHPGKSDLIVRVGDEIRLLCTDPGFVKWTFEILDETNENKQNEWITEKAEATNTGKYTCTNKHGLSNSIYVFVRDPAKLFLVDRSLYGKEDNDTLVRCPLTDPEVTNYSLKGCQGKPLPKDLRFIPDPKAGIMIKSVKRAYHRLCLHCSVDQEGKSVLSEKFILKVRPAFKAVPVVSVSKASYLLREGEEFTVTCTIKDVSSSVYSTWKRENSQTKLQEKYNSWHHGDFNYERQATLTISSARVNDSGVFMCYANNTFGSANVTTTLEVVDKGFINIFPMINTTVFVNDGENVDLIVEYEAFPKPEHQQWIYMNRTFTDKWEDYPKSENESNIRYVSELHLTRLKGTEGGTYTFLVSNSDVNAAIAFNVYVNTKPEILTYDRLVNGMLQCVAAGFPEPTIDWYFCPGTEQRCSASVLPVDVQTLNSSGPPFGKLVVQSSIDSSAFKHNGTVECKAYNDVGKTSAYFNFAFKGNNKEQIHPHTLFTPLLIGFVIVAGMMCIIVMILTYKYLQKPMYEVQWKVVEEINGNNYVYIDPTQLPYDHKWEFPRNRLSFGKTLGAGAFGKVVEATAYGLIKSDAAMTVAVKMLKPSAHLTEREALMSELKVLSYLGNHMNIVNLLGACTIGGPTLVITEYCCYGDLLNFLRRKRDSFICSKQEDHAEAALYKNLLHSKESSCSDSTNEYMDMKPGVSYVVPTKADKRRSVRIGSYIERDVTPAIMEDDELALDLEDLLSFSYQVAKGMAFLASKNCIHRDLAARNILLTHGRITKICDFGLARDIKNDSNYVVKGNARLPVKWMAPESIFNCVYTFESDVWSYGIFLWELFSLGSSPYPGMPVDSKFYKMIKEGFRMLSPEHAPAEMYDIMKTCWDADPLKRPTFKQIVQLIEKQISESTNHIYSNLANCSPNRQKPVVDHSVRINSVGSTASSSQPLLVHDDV
T4 sequence (A0A7N9CP24 entry or part of it): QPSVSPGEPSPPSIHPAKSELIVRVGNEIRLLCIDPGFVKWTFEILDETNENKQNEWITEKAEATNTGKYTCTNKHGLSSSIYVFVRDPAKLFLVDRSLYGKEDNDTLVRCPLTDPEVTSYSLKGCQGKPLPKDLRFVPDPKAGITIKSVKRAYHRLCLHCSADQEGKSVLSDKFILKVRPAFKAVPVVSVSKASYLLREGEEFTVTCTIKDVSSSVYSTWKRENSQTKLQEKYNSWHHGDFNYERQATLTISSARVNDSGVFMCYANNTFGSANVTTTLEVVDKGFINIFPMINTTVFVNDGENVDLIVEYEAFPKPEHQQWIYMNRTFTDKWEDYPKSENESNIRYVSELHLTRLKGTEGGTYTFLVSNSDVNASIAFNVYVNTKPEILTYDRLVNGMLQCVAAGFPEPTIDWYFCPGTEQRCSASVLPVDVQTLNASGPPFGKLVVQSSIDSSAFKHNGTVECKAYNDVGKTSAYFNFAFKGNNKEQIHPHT

Binder | binding result [1] | MFI Ratio [2] | EC50 [3] [nM] | binding result (mouse CD117) | Kd (cyno CD117) [nM] | koff (cyno CD117) [s⁻¹] | kon (cyno CD117) [M⁻¹ s⁻¹] | Kd [1] [nM] | koff [1] [s⁻¹] | kon [1] [M⁻¹ s⁻¹]
CD117-8 (antibody, human IgG1, kappa, V domains shown, detected with anti-human IgG in FACS) VH: EVQLLESGGGLVQPGGSLRLSCAASGFTLTSYAMSWVRQAPGKGLEWVSTISGSGGYTYYADSVKGRFTISRDNSKNTLYLQMNSLRAEDTAVYYCARDSGYDRGLDYWGQGTLVTVSS VL: DIQMTQSPSSLSASVGDRVTITCRASQSVRTYLNWYQQKPGKAPKLLIYDASTLQSGVPSRFSGSGSGTDFTLTISSLQPEDFATYYCQQSYNTPLAFGGGTKVEIKR | no binding | 4.25 | 351 | – | – | – | – | – | – | –
CD117-15 (antibody, human IgG1, kappa, V domains shown, detected with anti-human IgG in FACS) VH: EVQLLESGGGLVQPGGSLRLSCAASGFTFSDYPMSWVRQAPGKGLEWVSAIGGSGGDTYYADSVKGRFTISRDNSKNTLYLQMNSLRAEDTAVYYCARGAYDGEGFDYWGQGTLVTVSS VL: DIQMTQSPSSLSASVGDRVTITCRTSQSIGSYLNWYQQKPGKAPKLLIYSASRLESGVPSRFSGSGSGTDFTLTISSLQPEDFATYYCQQTYNTPWTFGGGTKVEIKR | – | – | – | no binding | – | – | – | – | – | –
CD117-12 (antibody, human IgG1, kappa, V domains shown, detected with anti-human IgG in FACS) VH: EVQLLESGGGLVQPGGSLRLSCAASGITFSSYAMTWVRQAPGKGLEWVSAISSSGTGTYYADSVKGRFTISRDNSKNTLYLQMNSLRAEDTAVYYCARERAPKDFGSSGYSFDYWGQGTLVTVSS VL: DIQMTQSPSSLSASVGDRVTITCRASQSIDIYLNWYQQKPGKAPKLLIYKASSLQSGVPSRFSGSGSGTDFTLTISSLQPEDFATYYCQQSYTVPITFGGGTKVEIKR | – | 10.6 | 1210 | no binding | 5190 | 0.201 | 38700 | 187 | 0.101 | 541000
CD117-4 (antibody, human IgG1, kappa, V domains shown, detected with anti-human IgG in FACS) VH: EVQLLESGGGLVQPGGSLRLSCAASGFTFSRSAMSWVRQAPGKGLEWVSAISAGGGNTYYADSVKGRFTISRDNSKNTLYLQMNSLRAEDTAVYYCAREQDLWSGTFDYWGQGTLVTVSS VL: DIQMTQSPSSLSASVGDRVTITCRARQSISSYLNWYQQKPGKAPKLLIYDASSLRSGVPSRFSGSGSGTDFTLTISSLQPEDFATYYCQQSYKTPWTFGGGTKVEIKR | no binding | 10.5 | 3.42 | – | – | – | – | – | – | –
CD117-10 (antibody, human IgG1, kappa, V domains shown, detected with anti-human IgG in FACS) VH: EVQLLESGGGLVQPGGSLRLSCAASGFIFSSYAMTWVRQAPGKGLEWVSSISGRGGNTYYADSVKGRFTISRDNSKNTLYLQMNSLRAEDTAVYYCAKMMDDFYDAFNMWGQGTLVTVSS VL: DIQMTQSPSSLSASVGDRVTITCRASQSIRTYLNWYQQKPGKAPKLLIYDASSLESGVPSRFSGSGSGTDFTLTISSLQPEDFATYYCQQSFTTPYTFGGGTKVEIKR | no binding | 21.2 | 91.3 | no binding | 26600 | 0.916 | 34400 | – | – | –
CD117-3 (antibody, human IgG1, kappa, V domains shown, detected with anti-human IgG in FACS) VH: EVQLLESGGGLVQPGGSLRLSCAASGFSFSSYAMSWVRQAPGKGLEWVSAISGTGGNTYYADSVKGRFTISRDNSKNTLYLQMNSLRAEDTAVYYCARRNDFWSDAFDIWGQGTLVTVSS VL: DIQMTQSPSSLSASVGDRVTITCRASQNIYTYLNWYQQKPGKAPKLLIYDASSLHSGVPSRFSGSGSGTDFTLTISSLQPEDFATYYCQQSSSTPYTFGGGTKVEIKR | – | – | – | no binding | – | – | – | – | – | –
CD117-18 (antibody, human IgG1, kappa, V domains shown, detected with anti-human IgG in FACS) VH: EVQLLESGGGLVQPGGSLRLSCAASGFTFSDYSMNWVRQAPGKGLEWVSAITGSGGNTFYADSVKGRFTISRDNSKNTLYLQMNSLRAEDTAVYYCARSNYEQDVFDIWGQGTLVTVSS VL: DIQMTQSPSSLSASVGDRVTITCRASQTIYRYLNWYQQKPGKAPKLLIYDASDLQSGVPSRFSGSGSGTDFTLTISSLQPEDFATYYCQQSYSIPITFGGGTKVEIKR | – | 16.2 | 20 | no binding | 5.02 | 0.00679 | 1.35e+06 | 2.53 | 0.00336 | 1.33e+06
CD117-20 (antibody, human IgG1, kappa, V domains shown, detected with anti-human IgG in FACS) VH: EVQLLESGGGLVQPGGSLRLSCAASGFTFSSDAMNWVRQAPGKGLEWVSGISGSGGYTYYADSVKGRFTISRDNSKNTLYLQMNSLRAEDTAVYYCARSGNVVGDGMDVWGQGTLVTVSS VL: DIQMTQSPSSLSASVGDRVTITCRASQNIRRYLNWYQQKPGKAPKLLIYDASTLESGVPSRFSGSGSGTDFTLTISSLQPEDFATYYCQQSHTTPLTFGGGTKVEIKR | no binding | 14.4 | 6.24 | no binding | 4120 | 0.298 | 72200 | – | – | –
CD117-11 (antibody, human IgG1, kappa, V domains shown, detected with anti-human IgG in FACS) VH: EVQLLESGGGLVQPGGSLRLSCAASGFTFGNFAMSWVRQAPGKGLEWVSLISGSGGNTYYADSVKGRFTISRDNSKNTLYLQMNSLRAEDTAVYYCARGDGVNGFDYWGQGTLVTVSS VL: DIQMTQSPSSLSASVGDRVTITCRASQSIPTYLNWYQQKPGKAPKLLIYATSTLESGVPSRFSGSGSGTDFTLTISSLQPEDFATYYCQQTYSTPYTFGGGTKVEIKR | – | 17.2 | 4.31 | no binding | 338 | 0.0681 | 201000 | 270 | 0.0679 | 252000
CD117-13 (antibody, human IgG1, kappa, V domains shown, detected with anti-human IgG in FACS) VH: EVQLLESGGGLVQPGGSLRLSCAASGFTLTSYAMSWVRQAPGKGLEWVSTISGSGGYTYYADSVKGRFTISRDNSKNTLYLQMNSLRAEDTAVYYCARDSGYDRGLDYWGQGTLVTVSS VL: DIQMTQSPSSLSASVGDRVTITCRASQNIYTYLNWYQQKPGKAPKLLIYDASSLHSGVPSRFSGSGSGTDFTLTISSLQPEDFATYYCQQSSSTPYTFGGGTKVEIKR | – | 18.6 | 11 | no binding | 480 | 0.156 | 324000 | 5.17 | 0.00877 | 1.7e+06
CD117-19 (antibody, human IgG1, kappa, V domains shown, detected with anti-human IgG in FACS) VH: EVQLLESGGGLVQPGGSLRLSCAASGFSFSSYAMSWVRQAPGKGLEWVSAISGTGGNTYYADSVKGRFTISRDNSKNTLYLQMNSLRAEDTAVYYCARRNDFWSDAFDIWGQGTLVTVSS VL: DIQMTQSPSSLSASVGDRVTITCRASQNIYTYLNWYQQKPGKAPKLLIYDASSLHSGVPSRFSGSGSGTDFTLTISSLQPEDFATYYCQQSYSSSITFGGGTKVEIKR | – | 12.9 | 3.29 | no binding | 20.8 | 0.0272 | 1.31e+06 | 5.87 | 0.00388 | 662000
CD117-17 (antibody, human IgG1, kappa, V domains shown, detected with anti-human IgG in FACS) VH: EVQLLESGGGLVQPGGSLRLSCAASGFTFSDYPMSWVRQAPGKGLEWVSAIGGSGGDTYYADSVKGRFTISRDNSKNTLYLQMNSLRAEDTAVYYCARGAYDGEGFDYWGQGTLVTVSS VL: DIQMTQSPSSLSASVGDRVTITCRASQTISGYLNWYQQKPGKAPKLLIYDASTLQRGVPSRFSGSGSGTDFTLTISSLQPEDFATYYCQQNYRTPFTFGGGTKVEIKR | – | 20.1 | 7.58 | no binding | 92.6 | 0.0673 | 727000 | 3 | 0.00406 | 1.35e+06
